The results in this text go back to article doi:10.1101/2020.02.20.958934 (bioRxiv, 2020).

This experiment addresses T1, PEBP1 (UniProt P70296 1-187).
T1 sequence (looked up): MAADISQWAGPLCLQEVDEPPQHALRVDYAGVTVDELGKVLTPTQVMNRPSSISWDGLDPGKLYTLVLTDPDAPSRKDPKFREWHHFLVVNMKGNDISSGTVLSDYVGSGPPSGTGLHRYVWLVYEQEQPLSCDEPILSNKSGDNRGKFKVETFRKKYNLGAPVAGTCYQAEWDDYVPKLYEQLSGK
In words: ITC.

B1: dendritic cell factor 1 (DCF1) (natural protein)
chain: EAFDSVLGDTASCHRACQLTYPLHTYPKEEELYACQRGCRLFSICQFVDDGLDLNRTKLECESACTEAYSQPDEQYACHLGCQDQLPFAELRQEQLMSLMPRMHLLFPLTLVRSFWSDMMDSAQSFITSSWTFYLQADDGKIVIFQSKPEIQYAPQLEQEPTNLRESSLSKMSYLQMRNSQAHRNYLEEEESDGFLRCLSLNSGWILTTTLVLSVMVLLWICCAAVATAVEQYVPPEKLSIYGDLEFMNEQKLSRYPAPSLVIVRSQTEEHEEAGPLPTKVNLAHSEI
As for B1, the dH is -329000 cal/mol and the “stoichiometry N” value is 0.753 ± 0.0359.

By stoichiometry N is commonly meant the number of molecules, sites or subunits per partner or assembly.
